Square brackets hold non-standard residues; d marks the D form. Sta = CC(C)C[C@H](N)[C@@H](O)CC(=O)O
How the values were obtained:
β-secretase 46-452 = molecular target: T1, β-secretase 46-452 (human, UniProt P56817 46-452); assay: binding to P10-P4′staD→V affinity matrix
T1 construct: C-terminally truncated form lacking the transmembrane region

[1] = molecular target: T2, recombinant β-secretase from 293T cells, minor form starting at Thr-22 (human, UniProt P56817 22-501); assay: N-terminal sequencing of fractions from P10-P4′staD→V Sepharose, 293T cells
T2 construct: C-terminus not determined
Experimental: (§1) The cell pellet was resuspended by homogenizing for 30 seconds using a handheld homogenizer (0.5 ml/pellet of approximately 10^6 cells in extraction buffer consisting of 20 mM TRIS buffer, pH 7.5, 2 mM EDTA, 0.2% Triton X-100, plus protease inhibitors: 5 μg/ml E-64, 10 μg/ml pepstatin, 1 mM PMSF), centrifuged as maximum speed in a microfuge (40 minutes at 4 degrees C.). Pellets were suspended in original volume of extraction buffer, then stirred at 1 hour at 4 degrees C. with rotation, and centrifuted again in a microfuge at maximum speed for 40 minutes. The resulting supernatant was saved as the "extract." The extract was then diluted with 20 mm sodium acetate, pH 5.0, 2 mM EDTA and 0.2% Triton X-100 (SP buffer A), and 5 M NaCl was added to a final concentration of 60 mM NaCl. The pH of the solution was then adjusted to pH 5.0 with glacial acetic acid diluted 1:10 in water. Aliquots were saved ("SP load"). The SP load was passed through a 1 ml SP HiTrap column which was pre-washed with 5 ml SP buffer A, 5 ml SP buffer B (SP buffer A with 1 M NaCl) and 10 ml SP buffer A. An additional 2 ml of 5% SP buffer B was passed through the column to dissplace any remaining sample from the column. The pH of the SP flow-through was adjusted to pH 4.5 with 10× diluted acetic acid. This flow-through was then applied to a P10-P4'staD→V-Sepharose Affinity column, as described below. […]

[2] = molecular target: T3, recombinant β-secretase from 293T cells, minor form starting at Met-63 (human, UniProt P56817 63-501); assay: N-terminal sequencing of fractions from P10-P4′(statine)D→V Sepharose, 293T cells
T3 construct: C-terminus not determined
Experimental: as §1

[3] = molecular target: T4, recombinant β-secretase from Cos A2 cells, major form resulting from Gly-58 cleavage (human, UniProt P56817 58-501); assay: N-terminal sequencing of fractions from P10-P4′(statine)D→V Sepharose, Cos A2 cells
T4 construct: C-terminus not determined
Experimental: as §1

[4] = molecular target: T5, recombinant β-secretase from 293T or Cos A2 cells transfected with the full-length construct, form with … (human, UniProt P56817 46-501); assay: affinity chromatography on P10-P4′staD→V Sepharose, extracts of transfected 293T and COS A2 cells, pH 4.5
T5 construct: also called Recombinant, 293T; Recombinant, CosA2
Experimental: as §1

T3 sequence (P56817 63-501): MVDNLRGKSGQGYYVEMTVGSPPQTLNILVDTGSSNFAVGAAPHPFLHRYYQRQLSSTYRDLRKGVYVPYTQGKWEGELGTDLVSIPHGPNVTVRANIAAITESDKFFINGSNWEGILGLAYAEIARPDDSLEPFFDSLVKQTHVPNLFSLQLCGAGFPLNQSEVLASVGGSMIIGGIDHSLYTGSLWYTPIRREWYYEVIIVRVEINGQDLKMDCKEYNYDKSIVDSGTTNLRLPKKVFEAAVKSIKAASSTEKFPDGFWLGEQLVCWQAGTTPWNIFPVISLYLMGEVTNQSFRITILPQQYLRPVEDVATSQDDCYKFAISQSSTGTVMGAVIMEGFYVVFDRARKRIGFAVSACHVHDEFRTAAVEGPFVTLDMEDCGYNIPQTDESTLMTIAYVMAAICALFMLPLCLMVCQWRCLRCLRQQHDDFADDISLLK
T4 sequence (P56817 58-501): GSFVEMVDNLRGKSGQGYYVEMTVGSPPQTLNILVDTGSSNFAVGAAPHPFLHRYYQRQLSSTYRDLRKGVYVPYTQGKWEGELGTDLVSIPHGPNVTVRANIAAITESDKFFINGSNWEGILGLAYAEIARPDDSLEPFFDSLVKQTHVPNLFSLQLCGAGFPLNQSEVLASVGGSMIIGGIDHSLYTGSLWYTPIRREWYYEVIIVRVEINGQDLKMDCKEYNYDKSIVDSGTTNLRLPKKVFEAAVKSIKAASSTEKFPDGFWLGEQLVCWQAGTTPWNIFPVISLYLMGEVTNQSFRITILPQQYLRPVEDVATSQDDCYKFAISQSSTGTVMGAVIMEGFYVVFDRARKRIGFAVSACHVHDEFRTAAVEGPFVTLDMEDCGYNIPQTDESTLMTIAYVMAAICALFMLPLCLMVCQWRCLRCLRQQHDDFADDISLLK
T5 sequence (P56817 46-501): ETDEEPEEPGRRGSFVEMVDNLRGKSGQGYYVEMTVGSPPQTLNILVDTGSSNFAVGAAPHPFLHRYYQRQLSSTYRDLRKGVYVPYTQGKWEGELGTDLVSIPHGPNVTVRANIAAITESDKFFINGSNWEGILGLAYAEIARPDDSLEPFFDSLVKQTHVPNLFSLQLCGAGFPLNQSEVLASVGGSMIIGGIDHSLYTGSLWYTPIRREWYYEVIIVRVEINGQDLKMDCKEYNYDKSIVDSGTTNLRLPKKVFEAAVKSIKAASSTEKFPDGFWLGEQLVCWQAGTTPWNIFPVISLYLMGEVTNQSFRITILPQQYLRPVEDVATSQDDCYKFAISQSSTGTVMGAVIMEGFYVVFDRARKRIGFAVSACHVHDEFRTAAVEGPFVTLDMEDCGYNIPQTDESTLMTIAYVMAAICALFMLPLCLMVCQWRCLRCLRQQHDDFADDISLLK
T2 sequence (P56817 22-501): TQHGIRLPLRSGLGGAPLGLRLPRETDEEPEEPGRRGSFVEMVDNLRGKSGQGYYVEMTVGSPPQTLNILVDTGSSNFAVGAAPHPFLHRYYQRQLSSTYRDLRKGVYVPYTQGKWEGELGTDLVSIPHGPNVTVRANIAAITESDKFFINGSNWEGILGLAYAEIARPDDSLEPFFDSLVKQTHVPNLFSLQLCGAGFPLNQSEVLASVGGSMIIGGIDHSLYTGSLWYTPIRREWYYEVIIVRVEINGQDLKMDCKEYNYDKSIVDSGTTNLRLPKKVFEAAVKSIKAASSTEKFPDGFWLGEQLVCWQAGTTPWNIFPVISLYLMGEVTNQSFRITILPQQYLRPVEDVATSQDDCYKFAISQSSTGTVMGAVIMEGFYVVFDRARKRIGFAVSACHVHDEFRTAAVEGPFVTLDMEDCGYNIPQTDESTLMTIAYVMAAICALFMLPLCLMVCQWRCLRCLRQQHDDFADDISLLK
T1 sequence (P56817 46-452 limits assumed): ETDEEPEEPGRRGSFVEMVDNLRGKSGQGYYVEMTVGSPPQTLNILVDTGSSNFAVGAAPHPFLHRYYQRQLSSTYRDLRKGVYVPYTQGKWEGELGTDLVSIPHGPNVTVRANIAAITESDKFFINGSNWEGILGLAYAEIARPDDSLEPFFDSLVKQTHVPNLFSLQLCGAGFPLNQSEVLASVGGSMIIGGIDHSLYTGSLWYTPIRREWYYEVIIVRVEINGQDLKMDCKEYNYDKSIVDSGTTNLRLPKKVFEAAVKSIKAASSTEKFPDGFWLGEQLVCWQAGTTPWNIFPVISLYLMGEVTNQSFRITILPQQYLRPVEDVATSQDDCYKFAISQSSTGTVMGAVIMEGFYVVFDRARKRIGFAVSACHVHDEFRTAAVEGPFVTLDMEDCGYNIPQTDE

binding result (β-secretase 46-452): binds
binding result [1]: binds
binding result [2]: binds
binding result [3]: binds
binding result [4]: binds
B1: P10-P4′staD→V (NH2-KTEEISEVN[sta]VAEF-COOH) (peptide)
peptide: H-KTEEISEVN[Sta]VAEF-OH
notes: Synthetic statine peptide derived from the APPsw cleavage site with D→V at P1′; also called P10-P4′(statine)D→V

Source: US7115410 (ELAN PHARMACEUTICALS, dated 2006)
